Measured values: US20060067886A1, “Gastrin receptor-avid peptide conjugates” (priority 1997, published 2006)

Key:
in vivo = conditions: SCID, mouse, in vivo, iv, 4 uCi, total radioactivity; for tissue uptake at 0.5 h: 30 min; for tissue uptake at […]: 15 min
[1] = Biodistribution of radiometal-DOTA-BBN conjugates in CF1 normal mice; conditions: CF-1, mouse, in vivo, iv, total radioactivity; for tissue uptake dose at 1 h / dose excreted at 1 h: Avg % ID; for dose excreted at 1 h: Urine; for tissue uptake at 1 h: Avg % ID/gm
[2] = Blood, 1 hour, Blocking (excess BBN)
[3] = Kidney, 1 hour, Blocking (excess BBN)
[4] = L. Intestine, 1 hour, Blocking (excess BBN)
[5] = Liver, 1 hour, Blocking (excess BBN)
[6] = Lung, 1 hour, Blocking (excess BBN)
[7] = Muscle, 1 hour, Blocking (excess BBN)
[8] = Pancreas, 1 hour post-injection
[9] = Pancreas, 1 hour, Blocking (excess BBN)
[10] = S. Intestine, 1 hour, Blocking (excess BBN)
[11] = Spleen, 1 hour, Blocking (excess BBN)
[12] = Stomach, 1 hour, Blocking (excess BBN)

SMILES: CSCC[C@H](NC(=O)[C@H](CC(C)C)NC(=O)[C@H](Cc1cnc[nH]1)NC(=O)CNC(=O)[C@@H](NC(=O)[C@H](C)NC(=O)[C@H](Cc1c[nH]c2ccccc12)NC(=O)[C@H](CCC(N)=O)NC(=O)CCCCCCCNC(=O)CN1CCN(CC(=O)O)CCN(CC(=O)O)CCN(CC(=O)O)CC1)C(C)C)C(N)=O [111In-DOTA-8-Aoc-BBN[7-14]NH2, metal not drawn]
- tissue uptake at 0.5 h (in vivo; Avg % ID/gm, Kidney): 8.7 ± 2.8 %ID/g
- tissue uptake at 1 h (in vivo; Avg % ID/gm, Kidney): 5.66 ± 1.33 %ID/g
- tissue uptake at 4 h (in vivo; Avg % ID/gm, Kidney): 3.18 ± 0.43 %ID/g
- tissue uptake at 48 h (in vivo; Avg % ID/gm, Kidney): 0.48 ± 0.09 %ID/g
- tissue uptake at […] (in vivo; Avg % ID/gm, L. Intestine): 8.58 ± 3.04 %ID/g
- tissue uptake at 0.5 h (in vivo; Avg % ID/gm, L. Intestine): 4.33 ± 0.44 %ID/g
- tissue uptake at 1 h (in vivo; Avg % ID/gm, L. Intestine): 4.29 ± 2.55 %ID/g
- tissue uptake at 4 h (in vivo; Avg % ID/gm, L. Intestine): 10.3 ± 2.7 %ID/g
- tissue uptake at 24 h (in vivo; Avg % ID/gm, L. Intestine, 24 hrs): 2.35 ± 0.43 %ID/g
- tissue uptake at 48 h (in vivo; Avg % ID/gm, L. Intestine): 0.81 ± 0.2 %ID/g
- tissue uptake at 72 h (in vivo; Avg % ID/gm, L. Intestine): 0.45 ± 0.04 %ID/g
- tissue uptake at […] (in vivo; Avg % ID/gm, Liver): 2.03 ± 0.85 %ID/g
- tissue uptake at 0.5 h (in vivo; Avg % ID/gm, Liver): 0.7 ± 0.21 %ID/g
- tissue uptake at 72 h (in vivo; Avg % ID/gm, Liver): 0.07 ± 0.02 %ID/g
- tissue uptake at 0.5 h (in vivo; Avg % ID/gm, Lung): 0.94 ± 0.28 %ID/g
- tissue uptake at 48 h (in vivo; Avg % ID/gm, Lung): 0.06 ± 0.02 %ID/g
- tissue uptake at 72 h (in vivo; Avg % ID/gm, Lung): 0.02 ± 0.02 %ID/g
- tissue uptake at […] (in vivo; Avg % ID/gm, Muscle): 1.3 ± 0.6 %ID/g
- tissue uptake at 0.5 h (in vivo; Avg % ID/gm, Muscle): 0.32 ± 0.12 %ID/g
- tissue uptake at 1 h (in vivo; Avg % ID/gm, Muscle): 0.08 ± 0.07 %ID/g
- tissue uptake at […] (in vivo; Avg % ID/gm, Pancreas): 54.3 ± 9.7 %ID/g
- tissue uptake at 0.5 h (in vivo; Avg % ID/gm, Pancreas): 27.9 ± 3.44 %ID/g
- tissue uptake at 4 h (in vivo; Avg % ID/gm, Pancreas): 16.6 ± 4.43 %ID/g
- tissue uptake at 48 h (in vivo; Avg % ID/gm, Pancreas): 0.77 ± 0.44 %ID/g
- tissue uptake at 72 h (in vivo; Avg % ID/gm, Pancreas): 0.23 ± 0.08 %ID/g
- tissue uptake at 0.5 h (in vivo; Avg % ID/gm, S. Intestine): 5.16 ± 1.06 %ID/g
- tissue uptake at 1 h (in vivo; Avg % ID/gm, S. Intestine): 6.8 ± 1.81 %ID/g
- tissue uptake at 4 h (in vivo; Avg % ID/gm, S. Intestine): 2.24 ± 0.35 %ID/g
- tissue uptake at 48 h (in vivo; Avg % ID/gm, S. Intestine): 0.25 ± 0.06 %ID/g
- tissue uptake at 72 h (in vivo; Avg % ID/gm, S. Intestine): 0.12 ± 0.02 %ID/g
- tissue uptake at […] (in vivo; Avg % ID/gm, Spleen): 2.21 ± 0.8 %ID/g
- tissue uptake at 0.5 h (in vivo; Avg % ID/gm, Spleen): 0.83 ± 0.26 %ID/g
- tissue uptake at […] (in vivo; Avg % ID/gm, Stomach): 3.3 ± 1.99 %ID/g
- tissue uptake at 0.5 h (in vivo; Avg % ID/gm, Stomach): 1.82 ± 0.44 %ID/g
- tissue uptake at 1 h (in vivo; Avg % ID/gm, Stomach): 1.99 ± 0.24 %ID/g
- tissue uptake at 72 h (in vivo; Avg % ID/gm, Stomach): 0.05 ± 0.02 %ID/g
- tissue uptake at 0.5 h (in vivo; Avg % ID/gm, Tumor): 4.58 ± 0.53 %ID/g
- tissue uptake at 4 h (in vivo; Avg % ID/gm, Tumor): 1.78 ± 1.09 %ID/g
- tissue uptake at 48 h (in vivo; Avg % ID/gm, Tumor): 0.68 ± 0.24 %ID/g
- tissue uptake at 72 h (in vivo; Avg % ID/gm, Tumor): 0.34 ± 0.1 %ID/g
- dose excreted at 24 h (in vivo; excretion through the hepatobiliary pathway, 24 hours p.i.): 8.5%
- tissue uptake dose at 1 h [1, 2]: 0.98 ± 0.23 %ID
- tissue uptake dose at 1 h ([1]; Carcass, 1 hour, Blocking (excess BBN)): 7.42 ± 1.35 %ID
- tissue uptake dose at 1 h ([1]; Heart, 1 hour post-injection): 0.01 %ID
- tissue uptake dose at 1 h ([1]; Kidney, 1 hour post-injection): 1.04 ± 0.12 %ID
- tissue uptake dose at 1 h [1, 3]: 0.92 ± 0.13 %ID
- tissue uptake dose at 1 h ([1]; L. Intestine, 1 hour post-injection): 3.02 ± 0.33 %ID
- tissue uptake dose at 1 h [1, 4]: 0.15 ± 0.05 %ID
- tissue uptake dose at 1 h [1, 5]: 0.87 ± 0.1 %ID
- tissue uptake dose at 1 h [1, 6]: 0.17 ± 0.05 %ID
- tissue uptake dose at 1 h ([1]; Muscle, 1 hour post-injection): 0.02 ± 0.01 %ID
- tissue uptake dose at 1 h [1, 7]: 0.02 ± 0.01 %ID
- tissue uptake dose at 1 h [1, 8]: 10.8 ± 0.78 %ID
- tissue uptake dose at 1 h [1, 9]: 0.19 ± 0.03 %ID
- tissue uptake dose at 1 h ([1]; S. Intestine, 1 hour post-injection): 6.58 ± 1.1 %ID
- tissue uptake dose at 1 h [1, 10]: 1.65 ± 0.19 %ID
- tissue uptake dose at 1 h ([1]; Spleen, 1 hour post-injection): 0.17 ± 0.04 %ID
- tissue uptake dose at 1 h [1, 11]: 0.02 ± 0.03 %ID
- tissue uptake dose at 1 h ([1]; Stomach, 1 hour post-injection): 0.5 ± 0.06 %ID
- tissue uptake dose at 1 h [1, 12]: 0.16 ± 0.12 %ID
- dose excreted at 1 h ([1]; 1 hour post-injection): 71.6 ± 1.82%
- dose excreted at 1 h ([1]; 1 hour, Blocking (excess BBN)): 88.2 ± 1.79%
- tissue uptake at 1 h [1, 2]: 0.49 ± 0.15 %ID/g
- tissue uptake at 1 h ([1]; Heart, 1 hour, Blocking (excess BBN)): 0.16 ± 0.06 %ID/g
- tissue uptake at 1 h [1, 3]: 2.19 ± 0.47 %ID/g
- tissue uptake at 1 h [1, 4]: 0.16 ± 0.06 %ID/g
- tissue uptake at 1 h [1, 5]: 0.54 ± 0.13 %ID/g
- tissue uptake at 1 h [1, 6]: 0.74 ± 0.17 %ID/g
- tissue uptake at 1 h ([1]; Muscle, 1 hour post-injection): 0.12 ± 0.05 %ID/g
- tissue uptake at 1 h [1, 7]: 0.11 ± 0.07 %ID/g
- tissue uptake at 1 h [1, 8]: 27 ± 3.97 %ID/g
- tissue uptake at 1 h [1, 9]: 0.43 ± 0.1 %ID/g
- tissue uptake at 1 h [1, 10]: 0.95 ± 0.18 %ID/g
- tissue uptake at 1 h [1, 11]: 0.15 ± 0.16 %ID/g
- tissue uptake at 1 h [1, 12]: 0.32 ± 0.34 %ID/g
